Data: US20210087270A1 (INNATE PHARMA, published 2021)

Columns and labels:
[1] = target: T1, human KIR3DL2 (CD158k), wild type, at the cell surface (human, UniProt P43630 22-455); assay: flow cytometry on HUT78 cells after 20 h at 37°C; bound antibody detected with goat anti-human IgG Fc-PE (MdFI GaH-PE); the box prints no unit, the concentration axis is in µg/ml
T1 construct: also called WTaKIR3DL2; un-mutated wild type KIR3DL2
Procedure: (§1) This study aimed to evaluate the impact of a 20 hour incubation with antibody 2B12 on cell surface KIR3DL2 level by observing the amount of bound 2B12 (human IgG1), free (non-antibody bound) cell surface KIR3DL2 polypeptide, and total cell surface KIR3DL2 polypeptide. Briefly, HUT78 (100,000 cells/well) were incubated for 20h at 37° C. with a dose range of 2B12 antibody starting from (decreasing) 8.88 μg/ml, 1/3 serial dilution, 11 concentrations. Dose ranges were made in duplicate in order to perform the following 2 staining conditions: [0317] Total KIR3DL2+bound KIR3DL2 (GaH IgG Fc-PE+mAb2-APC (a non-competing anti-KIR3LD2 mAb) (10 μg/ml) [0318] Free KIR3DL2: 2B12-PE (10 μg/ml).
(§2) Staining was performed at 4° C. in staining buffer for 1h and analyzed with a FACS Canto 11 HTS. The dark line/squares represents antibody 2B12 while the light line/circles represents isotype control. It can be seen that free KIR3DL2 receptors can be detected when incubating cells with 10 μg/ml of 2B12-PE and detecting free receptors with non-competing anti-KIR3DL2 antibody. It can be seen that 2B12-bound KIR3DL2 receptors can be detected by incubating cells with goat anti-human IgG Fc-PE secondary Ab. Both read-outs were correlated, with similar EC₅₀. […]

[2] = target: T1, human KIR3DL2 (CD158k), wild type, at …; assay: flow cytometry on live HUT78 cells, 24 h at 4°C in RPMI10%, detection with anti-human-Fc PE, median of fluorescence
Procedure: (§3) This study aimed to evaluate the impact of staining conditions on 2B12 labelling of KIR3DL2-expressing cells, gated on total cells, at 4° C. or 37° C., and with incubation times of 2 hours, 4 hours or 24 hours. Briefly, 100,000 HUT78 cells per well were incubated with a dose range of 2B12 antibody starting from 0.0005 μg/ml to 30 μg/ml (serial dilution 1/3 in complete medium). The protocol used was as follows: incubation 2H; 4H and overnight at 4° C. and 37°; staining in RPMI 10% with or without PFA fixation; 2 washes in SB (150 μl/w); addition of anti-human-Fc PE for 30 min at 4° C.; 2 washes in SB (100 μl/w); and detection using FACS CANTO II.

[3] = target: T1, human KIR3DL2 (CD158k), wild type, at …; assay: flow cytometry on live HUT78 cells, 2 h at 37°C in RPMI10%, detection with anti-human-Fc PE, median of fluorescence
Procedure: as §3

[4] = target: T1, human KIR3DL2 (CD158k), wild type, at …; assay: cell-based or functional assay
[5] = target: T1, human KIR3DL2 (CD158k), wild type, at …; assay: panel Bound KIR3DL2 - GaH-PE: flow cytometry on HUT78 cells after 24 h at 37°C with 2B12; bound antibody detected with goat anti-human IgG Fc-PE, the concentration axis is in µg/ml
Procedure: (§4) This study aimed to evaluate the dynamics of KIR3DL2 receptor expression by observing the amount of total, free and 2B12-bound KIR3DL2 after different periods of incubation with antibody 2B12. Briefly, HUT78 cells (50,000 cells/well) were incubated for 1h, 24h or 48h at 37° C. in complete medium with 2B12 (human IgG1), dose range starting from 10 μg/ml (decreasing), 1/3 serial dilution, 11 concentrations, or with isotype control (IC), dose range starting (decreasing) from 10 μg/ml, 1/3 serial dilution, 11 concentrations. Dose ranges were made in triplicate in order to perform 3 staining conditions: [0323] Bound KIR3DL2 (30 min at 4° C.): GaH IgG Fc-PE, [0324] Free KIR3DL2+total KIR3DL2 (1h at 4° C.): 2B12-PE (10 μg/ml)+mAb2-APC (non-competing anti-KIR3DL2) (10 μg/ml), [0325] Total KIR3DL2 (1h+30 min at 4° C.): 2B12 (10 μg/ml)+GaH IgG Fc-PE.

[6] = target: T1, human KIR3DL2 (CD158k), wild type, at …; assay: flow cytometry on live HUT78 cells, 4 h at 37°C in RPMI10%, detection with anti-human-Fc PE, median of fluorescence
Procedure: as §3

[7] = target: T1, human KIR3DL2 (CD158k), wild type, at …; assay: panel Free KIR3DL2 - 2B12-PE: flow cytometry on HUT78 cells after 1 h at 37°C with unlabelled 2B12; loss of free KIR3DL2 detected with 2B12-PE at 10 µg/ml, the concentration axis is in µg/ml
Procedure: as §4

[8] = target: T1, human KIR3DL2 (CD158k), wild type, at …; assay: flow cytometry on live HUT78 cells, 24 h at 37°C in RPMI10%, detection with anti-human-Fc PE, median of fluorescence
Procedure: as §3

[9] = target: T1, human KIR3DL2 (CD158k), wild type, at …; assay: panel Free KIR3DL2 - 2B12-PE: flow cytometry on HUT78 cells after 48 h at 37°C with unlabelled 2B12; loss of free KIR3DL2 detected with 2B12-PE at 10 µg/ml, the concentration axis is in µg/ml
Procedure: as §4

[10] = target: T1, human KIR3DL2 (CD158k), wild type, at …; assay: panel Free KIR3DL2 - 2B12-PE: flow cytometry on HUT78 cells after 24 h at 37°C with unlabelled 2B12; loss of free KIR3DL2 detected with 2B12-PE at 10 µg/ml, the concentration axis is in µg/ml
Procedure: as §4

[11] = target: T1, human KIR3DL2 (CD158k), wild type, at …; assay: panel Bound KIR3DL2 - GaH-PE: flow cytometry on HUT78 cells after 48 h at 37°C with 2B12; bound antibody detected with goat anti-human IgG Fc-PE, the concentration axis is in µg/ml
Procedure: as §4

[12] = target: T1, human KIR3DL2 (CD158k), wild type, at …; assay: cell-based or functional assay; remark: listed apart in the source
[13] = target: T1, human KIR3DL2 (CD158k), wild type, at …; assay: flow cytometry on HUT78 cells after 20 h at 37°C with unlabelled antibody; loss of free KIR3DL2 detected with PE-labelled 2B12 (IPH4102-PE on the sheet) at 10 µg/ml; the box prints no unit, the concentration axis is in µg/ml
Procedure: as §1, §2

[14] = target: KIR3DL2 mutant having I60N and G62S substitutions (human, UniProt P43630 22-455); assay: binding to a series of KIR3DL2 mutants
[15] = target: KIR3DL2 mutant having P14S, S15A and H23S substitutions (human, UniProt P43630 22-455); assay: binding to a series of KIR3DL2 mutants
[16] = target: T2, KIR3DL1 (CD158e1) (UniProt P43629 22-444, limits assumed); assay: hybridoma screening (flow cytometry, incl. HEK-293T/KIR3DL1 Domain 0-eGFP)
T2 construct: also called closely related KIR3DL1
Procedure: Antibodies which bind KIR3DL2 but not closely related KIR3DL1 were generated by immunizing mice with recombinant KIR3DL2-Fc fusion protein, described in US patent publication number US-2015-0232556-A1. Supernatant (SN) of the growing hybridomas were tested by flow cytometry on Sezary Syndrome cell lines (HUT78, COU-L) and HEK-293T/KIR3DL2 Domain 0-eGFP. Potentially interesting hybridomas selected from the initial screening were cloned by limiting dilution techniques in 96-wells plates. The secondary screen involved selection of hybridomas of interest by testing supernatants of the subclones by flow cytometry on HUT78, COU-L, HEK-293T/KIR3DL1 Domain 0-eGFP and HEK-293T/KIR3DL2 Domain 0-eGFP. Positive subclones were injected into mice to produce ascitis and antibodies of interest were purified before being tested in a Biacore assay using rec KIR3DL2 chips, followed by various assays formats based on binding to human KIR3DL2-expressing cells.

T1 sequence (P43630 22-455 E158D): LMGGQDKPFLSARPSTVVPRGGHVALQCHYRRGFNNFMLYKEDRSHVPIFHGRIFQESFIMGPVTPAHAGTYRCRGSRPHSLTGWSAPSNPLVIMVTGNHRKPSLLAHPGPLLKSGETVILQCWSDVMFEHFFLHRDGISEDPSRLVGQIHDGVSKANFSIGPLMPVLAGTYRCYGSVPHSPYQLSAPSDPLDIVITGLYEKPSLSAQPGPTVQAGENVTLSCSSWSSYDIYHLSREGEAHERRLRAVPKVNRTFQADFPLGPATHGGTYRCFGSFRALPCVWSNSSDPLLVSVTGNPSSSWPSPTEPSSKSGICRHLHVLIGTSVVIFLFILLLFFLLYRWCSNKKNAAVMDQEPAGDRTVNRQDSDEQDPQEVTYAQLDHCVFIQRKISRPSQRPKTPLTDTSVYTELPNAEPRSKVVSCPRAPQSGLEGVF
KIR3DL2 mutant having P14S, S15A and H23S substitutions, sequence (P43630 other isoform, or with tags, fused parts or gaps P14S S15A H23S P14S S15A H23S): as the sequence (P43630 22-455 E158D) above, with P14S, S15A, H23S counted along it
T2 sequence (P43629 22-444 limits assumed): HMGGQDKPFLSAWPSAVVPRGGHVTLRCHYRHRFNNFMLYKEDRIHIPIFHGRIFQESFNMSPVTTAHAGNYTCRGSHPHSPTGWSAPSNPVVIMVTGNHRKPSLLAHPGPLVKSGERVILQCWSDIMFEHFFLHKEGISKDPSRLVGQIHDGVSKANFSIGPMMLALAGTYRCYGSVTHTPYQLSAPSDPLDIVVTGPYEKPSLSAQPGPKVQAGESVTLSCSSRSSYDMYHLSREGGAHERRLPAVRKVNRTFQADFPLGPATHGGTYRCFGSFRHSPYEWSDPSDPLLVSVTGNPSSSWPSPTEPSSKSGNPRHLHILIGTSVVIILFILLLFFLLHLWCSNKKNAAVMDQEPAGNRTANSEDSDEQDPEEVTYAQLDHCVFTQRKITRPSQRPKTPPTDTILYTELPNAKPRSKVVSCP
KIR3DL2 mutant having I60N and G62S substitutions, sequence (P43630 other isoform, or with tags, fused parts or gaps I60N G62S I60N G62S): as the sequence (P43630 22-455 E158D) above, with I60N, G62S counted along it

| EC50 [1] [µg/mL] | EC50 (read off the curve) [2] [µg/mL] | EC50 (read off the curve) [3] [µg/mL] | EC50 of the increase of total cell-surface KIR3DL2 on HUT78 cells after 24 h at 37°C, panel Total KIR3DL2 - 2B12+GaH-PE [4] [µg/mL] | EC50 of the increase of total cell-surface KIR3DL2 on HUT78 cells after 24 h at 37°C, panel Total KIR3DL2 - mAb2-APC [4] [µg/mL] | EC50 of the increase of total cell-surface KIR3DL2 on HUT78 cells after 48 h at 37°C, panel Total KIR3DL2 - 2B12+GaH-PE [4] [µg/mL] | EC50 of the increase of total cell-surface KIR3DL2 on HUT78 cells after 48 h at 37°C, panel Total KIR3DL2 - mAb2-APC [4] [µg/mL] | EC50 [5] [µg/mL] | EC50 (read off the curve) [6] [µg/mL] | EC50 [7] [µg/mL] | EC50 (read off the curve) [8] [µg/mL] | EC50 [9] [µg/mL] | EC50 [10] [µg/mL] | EC50 [11] [µg/mL] | EC50 of the increase of total cell-surface KIR3DL2 on HUT78 cells after 20 h at 37°C, detected with mAb2-APC (axis: MdFI 13E4-APC) [12] [µg/mL] | EC50 [13] [µg/mL] | binding result [14] | binding result [15] | binding result [16] | Binder |
| --- | --- | --- | --- | --- | --- | --- | --- | --- | --- | --- | --- | --- | --- | --- | --- | --- | --- | --- | --- |
| 0.059 | ~0.04 | ~0.1 | 0.103 | 0.0599 | 0.0454 | 0.042 | 0.0566 | ~0.09 | 0.104 | ~0.07 | 0.0178 | 0.0438 | 0.0163 | 0.0789 | 0.0588 |  |  |  | antibody 2B12 (human IgG1) (antibody, V domains shown, Used as human IgG1 in the HUT78 staining studies (Parts 1-3); also called 2B12-PE) VH: QIQLVQSGPELKKPGETVRISCKASGYTFTTAGMQWVQKTPGKGLKWIGWINSHSGVPKYAEDFKGRFAFSLETSASTAYLQISTLKNEDTATYFCARGGDEGVMDYWGQGTSVTVS VL: DIVMTQSHKFMSTSLGDRVSFTCKASQDVSTAVAWYQQKPGQSPKLLIYWTSTRHTGVPDRFTGSGSGTDYTLTISSVQAEDLALYYCQQHYSTPWTFGGGTKLEIK |
|  |  |  |  |  |  |  |  |  |  |  |  |  |  |  |  | no binding | binds | no binding | antibody 2B12 (parental, as generated in Example 1) (antibody, V domains shown, From mouse hybridoma; It was detected with goat anti-mouse antibody in the internalization assay) VH: QIQLVQSGPELKKPGETVRISCKASGYTFTTAGMQWVQKTPGKGLKWIGWINSHSGVPKYAEDFKGRFAFSLETSASTAYLQISTLKNEDTATYFCARGGDEGVMDYWGQGTSVTVS VL: DIVMTQSHKFMSTSLGDRVSFTCKASQDVSTAVAWYQQKPGQSPKLLIYWTSTRHTGVPDRFTGSGSGTDYTLTISSVQAEDLALYYCQQHYSTPWTFGGGTKLEIK |
